Laboratory results taken from US20240360179A1.

Molecular target: beta-catenin in DLD1 TCF reporter cells (UniProt P35222)
Test: cell-based or functional assay

Chain of beta-catenin in DLD1 TCF reporter cells (P35222 2-781 limits assumed): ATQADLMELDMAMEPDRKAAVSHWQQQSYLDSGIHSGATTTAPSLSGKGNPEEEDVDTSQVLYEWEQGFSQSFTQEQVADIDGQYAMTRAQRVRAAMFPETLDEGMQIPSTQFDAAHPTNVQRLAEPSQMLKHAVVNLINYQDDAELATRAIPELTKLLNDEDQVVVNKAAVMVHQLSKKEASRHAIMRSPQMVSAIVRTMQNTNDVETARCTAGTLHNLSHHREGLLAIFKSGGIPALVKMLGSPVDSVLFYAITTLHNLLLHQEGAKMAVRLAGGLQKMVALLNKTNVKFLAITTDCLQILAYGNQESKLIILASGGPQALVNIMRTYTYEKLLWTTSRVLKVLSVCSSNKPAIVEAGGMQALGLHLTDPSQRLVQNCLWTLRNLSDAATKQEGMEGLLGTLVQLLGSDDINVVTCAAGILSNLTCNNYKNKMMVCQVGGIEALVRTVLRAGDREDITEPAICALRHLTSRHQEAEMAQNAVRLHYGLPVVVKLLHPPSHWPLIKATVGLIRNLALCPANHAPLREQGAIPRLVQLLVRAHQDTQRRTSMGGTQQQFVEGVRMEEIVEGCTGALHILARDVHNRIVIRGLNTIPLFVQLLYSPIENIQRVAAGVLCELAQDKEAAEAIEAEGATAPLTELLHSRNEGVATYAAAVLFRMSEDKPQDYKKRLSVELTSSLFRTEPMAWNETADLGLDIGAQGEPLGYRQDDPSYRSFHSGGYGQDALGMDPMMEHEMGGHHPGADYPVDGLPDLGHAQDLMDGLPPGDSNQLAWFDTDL

Substance | beta-catenin TCF4 DLD1 cell reporter assay IC50
C-1: Ac-PL3-Asp-Npg-B5-Asp-3COOHF-Ala-Ala-Phe-Leu-PyrS2-2F3MeF-BztA-Gln-NH2 (peptide) | 9800 nM
I-566: Ac-PL3-Asp-Npg-B5-Asp-3COOHF-Aib-Ala-Phe-[2_6-naph]Cys-PyrS2-3Thi-BztA-Cys-Ala-NH2 (peptide) | > 20000 nM
I-567: Ac-PL3-Asp-Npg-B5-Asp-3COOHF-Aib-Ala-Phe-[3_3-biph]Cys-PyrS2-3Thi-BztA-Cys-Ala-NH2 (peptide) | > 20000 nM

Molecular target: endogenous beta-catenin in cells (DLD1, HAP1 WT) (human)
Test: cell-based or functional assay

Chain of endogenous beta-catenin in cells (DLD1, HAP1 WT) (human) (P35222 2-781): as the sequence (P35222 2-781 limits assumed) above

Substance | AXIN2 expression in DLD1 cells, IC50 | SP5 expression in DLD1 cells, IC50
Peptide A | 9300 nM | 9000 nM

Molecular target: beta-catenin fused to HaloTag (NanoBRET acceptor construct), expressed in HEK293 cells (UniProt P35222)
Test: NanoBRET in HEK293 cells, beta-catenin-HaloTag against TCF4-NanoLuc

Chain of beta-catenin fused to HaloTag (NanoBRET acceptor construct), expressed in HEK293 cells (P35222 whole entry, the tested form may be a part): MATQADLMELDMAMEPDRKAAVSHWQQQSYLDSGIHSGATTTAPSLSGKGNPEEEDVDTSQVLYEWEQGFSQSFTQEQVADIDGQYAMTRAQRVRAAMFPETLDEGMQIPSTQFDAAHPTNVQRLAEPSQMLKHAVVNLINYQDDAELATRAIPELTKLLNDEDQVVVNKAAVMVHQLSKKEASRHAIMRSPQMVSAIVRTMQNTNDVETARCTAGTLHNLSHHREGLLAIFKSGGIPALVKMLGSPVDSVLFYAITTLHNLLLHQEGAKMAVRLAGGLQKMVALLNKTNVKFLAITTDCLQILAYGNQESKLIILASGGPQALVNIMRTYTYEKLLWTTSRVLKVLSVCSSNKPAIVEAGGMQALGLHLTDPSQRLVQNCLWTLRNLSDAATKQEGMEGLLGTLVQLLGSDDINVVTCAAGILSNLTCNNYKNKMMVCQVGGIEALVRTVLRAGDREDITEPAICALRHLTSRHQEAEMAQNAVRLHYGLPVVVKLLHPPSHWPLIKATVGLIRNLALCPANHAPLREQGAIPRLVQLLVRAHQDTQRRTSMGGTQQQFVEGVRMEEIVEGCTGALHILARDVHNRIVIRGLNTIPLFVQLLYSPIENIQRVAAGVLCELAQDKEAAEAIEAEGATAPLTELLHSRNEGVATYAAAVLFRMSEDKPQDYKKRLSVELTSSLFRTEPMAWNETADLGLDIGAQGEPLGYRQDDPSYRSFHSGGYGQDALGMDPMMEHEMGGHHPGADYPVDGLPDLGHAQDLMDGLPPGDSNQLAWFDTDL

Substance | IC50
Peptide A | 3000 nM

Molecular target: full-length B-Catenin (Uniprot ID P35222) (human)
Test: competition fluorescence polarization

Chain of full-length B-Catenin (Uniprot ID P35222) (human) (P35222 whole entry): as the sequence (P35222 whole entry, the tested form may be a part) above

Substance | IC50
1PydoneAc-PL3-Asp-Npg-B5-Asp-3COOHF-Aib-Ala-Phe-Lys*3-PyrS2-3Thi-BztA-GlnR*3-Ala-NH2 (peptide) | < 50 nM
1Pyrazole Ac-PL3-Asp-Npg-B5-Asp-3COOHF-Aib-Ala-Phe-Lys*3-PyrS2-3Thi-BztA-GlnR*3-Ala-NH2 (peptide) | < 50 nM
3Py Ac-PL3-Asp-Npg-B5-Asp-3COOHF-Aib-Ala-Phe-Lys*3-PyrS2-3Thi-BztA-GlnR*3-Ala-NH2 (peptide) | < 50 nM
3PyPrpc-PL3-Asp-Npg-B5-Asp-3COOHF-Aib-Ala-Phe-Lys*3-PyrS2-3Thi-BztA-GlnR*3-Ala-NH2 (peptide) | < 50 nM
4PyPrpc-PL3-Asp-Npg-B5-Asp-3COOHF-Aib-Ala-Phe-Lys*3-PyrS2-3Thi-BztA-GlnR*3-Ala-NH2 (I-1070) (peptide) | < 50 nM
4PyPrpc-PL3-Asp-Npg-B5-Asp-3COOHF-Aib-Ala-Phe-Lys*3-PyrS2-3Thi-BztA-GlnR*3-Ala-NH2 (I-1071) (peptide) | < 50 nM
5PymAc-PL3-Asp-Npg-B5-Asp-3COOHF-Aib-Ala-Phe-Lys*3-PyrS2-3Thi-BztA-GlnR*3-Ala-NH2 (peptide) | < 50 nM
123TriAc-PL3-Asp-Npg-B5-Asp-3COOHF-Aib-Ala-Phe-Lys*3-PyrS2-3Thi-BztA-GlnR*3-Ala-NH2 (peptide) | < 50 nM

Molecular target: full-length beta-catenin (Uniprot ID P35222) (human)
Test: competition fluorescence polarization

Substance | IC50
I-376: Ac-PL3-Asp-Npg-B5-Asp-3COOHF-Aib-Ala-Phe-[oXyl]Cys-PyrS2-2F3MeF-BztA-Cys-Ala-NH2 (peptide) | 220 nM
I-377: Ac-PL3-Asp-Npg-B5-Asp-3COOHF-Aib-Ala-Phe-[pXyl]Cys-PyrS2-2F3MeF-BztA-Cys-Ala-NH2 (peptide) | 93 nM
I-566: Ac-PL3-Asp-Npg-B5-Asp-3COOHF-Aib-Ala-Phe-[2_6-naph]Cys-PyrS2-3Thi-BztA-Cys-Ala-NH2 (peptide) | 58 nM
I-567: Ac-PL3-Asp-Npg-B5-Asp-3COOHF-Aib-Ala-Phe-[3_3-biph]Cys-PyrS2-3Thi-BztA-Cys-Ala-NH2 (peptide) | 120 nM

Molecular target: beta-catenin fused to HaloTag (Bcat-Halo NanoBRET construct), expressed in HEK293 cells (UniProt P35222)
Test: NanoBRET Abs IC50 in HEK293 cells, beta-catenin-HaloTag against TCF4-NanoLuc

Chain of beta-catenin fused to HaloTag (Bcat-Halo NanoBRET construct), expressed in HEK293 cells (P35222 whole entry, the tested form may be a part): as above

Substance | IC50
Ac-PL3-Asp-Npg-B5-Asp-2COOHF-Aib-Ala-Phe-Lys*3-PyrS2-2F3MeF-BztA-GlnR*3-Ala-NH2 (peptide) | < 3000 nM
Ac-PL3-Asp-Npg-B5-Asp-3F2COOHF-Aib-Ala-Phe-Lys*3-PyrS2-2F3MeF-BztA-GlnR*3-Ala-NH2 (peptide) | > 3000 nM
Ac-PL3-Asp-Npg-B5-Asp-4F3Me2COOHF-Aib-Ala-Phe-Lys*3-PyrS2-2F3MeF-BztA-GlnR*3-Ala-NH2 (peptide) | > 3000 nM
Ac-PL3-Asp-Npg-B5-Asp-4F3Me3COOHF-Aib-Ala-Phe-Lys*3-PyrS2-2F3MeF-BztA-GlnR*3-Ala-NH2 (peptide) | < 3000 nM
Ac-PL3-Asp-Npg-B5-Asp-5F3Me2COOHF-Aib-Ala-Phe-Lys*3-PyrS2-2F3MeF-BztA-GlnR*3-Ala-NH2 (peptide) | > 3000 nM
Ac-PL3-Asp-Npg-B5-Asp-Ala-Aib-Ala-Phe-Lys*3-PyrS2-2F3MeF-BztA-GlnR*3-Ala-NH2 (peptide) | > 3000 nM
Ac-PL3-Asp-Npg-B5-Asp-Asn-Aib-Ala-Phe-Lys*3-PyrS2-2F3MeF-BztA-GlnR*3-Ala-NH2 (peptide) | > 3000 nM
Ac-PL3-Asp-Npg-B5-Asp-Asp-Aib-Ala-Phe-Lys*3-PyrS2-2F3MeF-BztA-GlnR*3-Ala-NH2 (peptide) | > 3000 nM
Ac-PL3-Asp-Npg-B5-Asp-Gln-Aib-Ala-Phe-Lys*3-PyrS2-2F3MeF-BztA-GlnR*3-Ala-NH2 (peptide) | > 3000 nM
Ac-PL3-Asp-Npg-B5-Asp-Glu-Aib-Ala-Phe-Lys*3-PyrS2-2F3MeF-BztA-GlnR*3-Ala-NH2 (peptide) | > 3000 nM
Ac-PL3-Asp-Npg-B5-Asp-Ser-Aib-Ala-Phe-Lys*3-PyrS2-2F3MeF-BztA-GlnR*3-Ala-NH2 (peptide) | > 3000 nM
Ac-PL3-Asp-Npg-B5-Asp-aThr-Aib-Ala-Phe-Lys*3-PyrS2-2F3MeF-BztA-GlnR*3-Ala-NH2 (peptide) | > 3000 nM

Molecular target: full-length B-Catenin (Uniprot ID P35222) (human)
Test: competition fluorescence polarization, displacement of 5FAM-TCF4

Substance | IC50
Ac-PL3-Asp-Npg-B5-Asp-5F3Me3COOHF-Aib-Ala-Phe-Lys*3-PyrS2-2F3MeF-BztA-GlnR*3-Ala-NH2 (peptide) | < 50 nM
Ac-PL3-Asp-Npg-B5-Asp-dGlu-Aib-Ala-Phe-Lys*3-PyrS2-2F3MeF-BztA-GlnR*3-Ala-NH2 (peptide) | < 50 nM
